Substitutions are numbered along the chain they refer to. Numbers in names are those of the source.
B1: XPA23 light chain A51D (Fab, V domains shown)
VH: EVQLLESGGGLVQPGGSLRLSCAASGFTFSKYFMFWVRQAPGKGLEWVSVISPSGGMTRYADSVKGRFTISRDNSKNTLYLQMNSLRAEDTAVYYCARVGYGGNSDYWGQGTLVTVSS
VL: DIQMTQSPSSVSASVGDRLTIICRASQDINRWLAWYQQTPGNAPKLLIHSDTSLQSGVPSRFSGSGSGTDFTLTINSLQPEDFATYYCQQADSFPLTFGGGTKVEIK
B2: XPA23 light chain A91S (Fab, V domains shown)
VH: B1 VH
VL: B1 VL with D51A, A91S
B3: XPA23 light chain D28A (Fab, V domains shown)
VH: B1 VH
VL: B1 VL with D28A, D51A
B4: XPA23 light chain A51G (Fab, V domains shown)
VH: B1 VH
VL: B1 VL with D51G
B5: XPA23 light chain A91Q (Fab, V domains shown)
VH: B1 VH
VL: B1 VL with D51A, A91Q
B6: XPA23 light chain D28F (Fab, V domains shown)
VH: B1 VH
VL: B1 VL with D28F, D51A
B7: XPA23 light chain A51L (Fab, V domains shown)
VH: B1 VH
VL: B1 VL with D51L
B8: XPA23 light chain A91E (Fab, V domains shown)
VH: B1 VH
VL: B1 VL with D51A, A91E
B9: XPA23 light chain A51R (Fab, V domains shown)
VH: B1 VH
VL: B1 VL with D51R
B10: XPA23 light chain A91D (Fab, V domains shown)
VH: B1 VH
VL: B1 VL with D51A, A91D
B11: XPA23 light chain A51V (Fab, V domains shown)
VH: B1 VH
VL: B1 VL with D51V
B12: XPA23 light chain A91W (Fab, V domains shown)
VH: B1 VH
VL: B1 VL with D51A, A91W
B13: XPA23 light chain A51P (Fab, V domains shown)
VH: B1 VH
VL: B1 VL with D51P
B14: XPA23 light chain A91R (Fab, V domains shown)
VH: B1 VH
VL: B1 VL with D51A, A91R
B15: XPA23 light chain A91N (Fab, V domains shown)
VH: B1 VH
VL: B1 VL with D51A, A91N
B16: XPA23 light chain A51E (Fab, V domains shown)
VH: B1 VH
VL: B1 VL with D51E
B17: XPA23 light chain A51H (Fab, V domains shown)
VH: B1 VH
VL: B1 VL with D51H
B18: XPA23 light chain A51N (Fab, V domains shown)
VH: B1 VH
VL: B1 VL with D51N
B19: XPA23 light chain A91Y (Fab, V domains shown)
VH: B1 VH
VL: B1 VL with D51A, A91Y
B20: XPA23 light chain A51W (Fab, V domains shown)
VH: B1 VH
VL: B1 VL with D51W
B21: XPA23 light chain A51S (Fab, V domains shown)
VH: B1 VH
VL: B1 VL with D51S
B22: XPA23 light chain D28L (Fab, V domains shown)
VH: B1 VH
VL: B1 VL with D28L, D51A
B23: XPA23 light chain D28I (Fab, V domains shown)
VH: B1 VH
VL: B1 VL with D28I, D51A
B24: XPA23 light chain D28S (Fab, V domains shown)
VH: B1 VH
VL: B1 VL with D28S, D51A
B25: XPA23 light chain D28G (Fab, V domains shown)
VH: B1 VH
VL: B1 VL with D28G, D51A
B26: XPA23 light chain A51F (Fab, V domains shown)
VH: B1 VH
VL: B1 VL with D51F
B27: XPA23 light chain A91H (Fab, V domains shown)
VH: B1 VH
VL: B1 VL with D51A, A91H
B28: XPA23 light chain D28R (Fab, V domains shown)
VH: B1 VH
VL: B1 VL with D28R, D51A
B29: XPA23 light chain D28V (Fab, V domains shown)
VH: B1 VH
VL: B1 VL with D28V, D51A
B30: XPA23 light chain A51Q (Fab, V domains shown)
VH: B1 VH
VL: B1 VL with D51Q
B31: XPA23 light chain D28P (Fab, V domains shown)
VH: B1 VH
VL: B1 VL with D28P, D51A
B32: XPA23 light chain A51Y (Fab, V domains shown)
VH: B1 VH
VL: B1 VL with D51Y
B33: XPA23 light chain A51T (Fab, V domains shown)
VH: B1 VH
VL: B1 VL with D51T
B34: XPA23 light chain A51I (Fab, V domains shown)
VH: B1 VH
VL: B1 VL with D51I
B35: XPA23 light chain D28K (Fab, V domains shown)
VH: B1 VH
VL: B1 VL with D28K, D51A
B36: XPA23 light chain A91F (Fab, V domains shown)
VH: B1 VH
VL: B1 VL with D51A, A91F
B37: XPA23 light chain D28E (Fab, V domains shown)
VH: B1 VH
VL: B1 VL with D28E, D51A
B38: XPA23 light chain D28T (Fab, V domains shown)
VH: B1 VH
VL: B1 VL with D28T, D51A
B39: XPA23 light chain D28N (Fab, V domains shown)
VH: B1 VH
VL: B1 VL with D28N, D51A
B40: XPA23 light chain D28H (Fab, V domains shown)
VH: B1 VH
VL: B1 VL with D28H, D51A
B41: XPA23 Fab, heavy chain Y107S (Fab, V domains shown)
VH: B1 VH with Y107S
VL: B1 VL with D51A
B42: XPA23 Fab, heavy chain Y107W (Fab, V domains shown)
VH: B1 VH with Y107W
VL: B1 VL with D51A

The binders below were run against T1, IL-1β (UniProt P01584 117-269) (assay: Biacore, periplasmic extract).
T1 construct: Antigen immobilised on the Biacore chip

fold difference in affinity vs original [fold] | binding result | Binder
0.13 |  | B1
0.9 |  | B2
0.88 |  | B3
3.84 |  | B4
 | no binding | B5
1.43 |  | B6
0.16 |  | B7
0.1 |  | B8
0.18 |  | B9
1.08 |  | B10
0.31 |  | B11
 | no binding | B12
0.13 |  | B13
 | no binding | B14
0.1 |  | B15
0.29 |  | B16
0.61 |  | B17
0.3 |  | B18
 | no binding | B19
0.24 |  | B20

fold difference in affinity vs original [fold] | binding result | Binder
0.95 |  | B21
9.64 |  | B22
 | no binding | B23
5.25 |  | B24
1.21 |  | B25
 | no binding | B26
1.12 |  | B27
0.94 |  | B28
0.85 |  | B29
0.24 |  | B30
1.17 |  | B31
0.45 |  | B32
0.76 |  | B33
 | no binding | B34
0.82 |  | B35
 | no binding | B36
0.74 |  | B37
1.19 |  | B38
1 |  | B39
1.23 |  | B40

Each binder was assayed against T2, IL-1beta (UniProt P01584 117-269) (assay: Biacore).
T2 construct: also called IL-1β

fold difference in affinity vs parental [fold] | Binder
0.89 | B41
0.89 | B42

Source: patent US20110118131A1 (published 2011)
